The results in this text go back to patent publication US20180112008A1 (Memorial Sloan Kettering, published 2018).

Substitutions are numbered along the chain they refer to. Ends that are not written are not given here. * marks the point of attachment. GlcNAc2 = N-linked chitobiose, CC(=O)N[C@@H]1[C@@H](O)[C@H](O[C@@H]2O[C@H](CO)[C@@H](O)[C@H](O)[C@H]2NC(C)=O)[C@@H](CO)O[C@H]1*

The target in test [1] is GlcNAc2-15-mer glycopeptide, unconjugated (human). Put plainly: ELISA 12/24/13 (sups from time of freezing), neat, column 15S.
Test [2] has as its target MUC16^c114 (human). Description: FACS, SKOV3 transfectant, goat anti-mouse IgG-PE. For orientation: Flow cytometry measures light scatter and fluorescence of single cells or particles in a stream.
Test [3] deals with GlcNAc2-15-mer glycopeptide, unconjugated (human). Put plainly: sandwich ELISA on 'MUC16 15mer + GlcNAc2'; Blank 0.019. On the technique in general: In an ELISA, binding on a coated surface is turned into a signal by an enzyme label.
The target in test [4] is MUC16^c114 (human). Put plainly: FACS of transfected cells; vector control phrGFP 11.4; cell line not given.
In test [5] the target is (GlcNAc2)2-18-mer glycopeptide, unconjugated (human). Put plainly: ELISA 12/24/13 (sups from time of freezing), neat, column 18S.
The target in test [6] is MUC16^c114 (human). Description: FACS of transfected cells; vector control phrGFP 3.7; cell line not given.
The target of test [7] is MUC16 unrelated peptide 18mer. Put plainly: sandwich ELISA on 'MUC16 unrelated peptide 18mer'; Blank 0.013.
Test [8] concerns the target non-glycosylated 15-mer MUC16 peptide (human). Description: sandwich ELISA on 'MUC16 15mer'; Blank 0.021.
For test [9], the target named is MUC16^c114 on SKOV3 cells with MGAT5 knock-down (human). Description: FACS, SKOV3-shMGAT5-c114.
In test [10] the target is MUC16 18mer. Put plainly: sandwich ELISA on 'MUC16 18mer'; Blank 0.032.
Test [11] deals with MUC16 18mer. Description: ELISA 12/24/13 (sups from time of freezing), neat, column 18.
Test [12] deals with (GlcNAc2)2-18-mer glycopeptide, unconjugated (human). Description: sandwich ELISA on 'MUC16 18mer + GlcNAc2'; Blank 0.029.
In test [13] the target is MUC16^c114 (human). Description: FACS of transfected cells; vector control phrGFP 7.9; cell line not given.
In test [14] the target is MUC16 unrelated peptide 18mer+GlcNAc2. Description: sandwich ELISA on 'MUC16 unrelated 18mer + GlcNAc2'; Blank 0.014.
Test [15] has as its target non-glycosylated 15-mer MUC16 peptide (human). Description: ELISA 12/24/13 (sups from time of freezing), neat, column 15.
The target in test [16] is MUC16^c114 (human). Description: FACS, SKOV3-c114.
The next test deals with T1, MUC16^c86.
T1 construct: also called Internal Deletion
T1 single chain: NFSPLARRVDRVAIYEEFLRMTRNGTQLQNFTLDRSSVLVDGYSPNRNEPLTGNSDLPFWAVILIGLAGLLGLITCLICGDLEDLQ
Description: FACS of transfected cells; vector control phrGFP 11.4; cell line not given.

The target of another test is T2, MUC16^c80.
T2 construct: also called External Deletion
T2 single chain: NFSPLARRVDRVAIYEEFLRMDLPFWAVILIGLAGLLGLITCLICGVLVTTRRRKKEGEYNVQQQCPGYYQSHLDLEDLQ
The description is as above.

A further test concerns the target T3, MUC16^c344 (human, N- and O-glycosylation sites ; chain 1 pos 231, 254 and 260 (N1, N24, N30 of c114): N-glycosylated Asn, written N; further N- and O-glycosylation sites in the tandem-repeat part).
T3 construct: also called MUC16^c344-GFP; SKOV3-c344; not shown: hrGFP of the phrGFP II-C vector, fused at the cytoplasmic carboxy-terminus
T3 chain: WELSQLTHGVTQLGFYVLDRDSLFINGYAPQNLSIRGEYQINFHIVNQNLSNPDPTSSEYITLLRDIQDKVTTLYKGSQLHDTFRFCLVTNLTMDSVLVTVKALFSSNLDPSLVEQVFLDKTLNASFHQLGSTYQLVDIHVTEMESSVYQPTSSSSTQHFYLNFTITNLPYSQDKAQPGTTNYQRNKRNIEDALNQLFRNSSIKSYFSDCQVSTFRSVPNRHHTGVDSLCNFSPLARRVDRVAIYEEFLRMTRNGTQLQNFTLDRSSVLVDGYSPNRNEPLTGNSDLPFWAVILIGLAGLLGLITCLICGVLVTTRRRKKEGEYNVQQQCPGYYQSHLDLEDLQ
The test is described as above.

Test [17] deals with T4, MUC16 nonglycosylated peptide 2 (human).
T4 construct: Peptide used to elicit the 4H11 antibody; also called nonglycosylated MUC16 peptide 2
T4 peptide: CTLDRSSVLVDGYSPNRNE
Put plainly: sandwich ELISA on 'MUC16 Nonglycosylated Peptide2'; Blank 0.029.

Another test addresses T5, MUC16^c114-N2 (human, chain 1 pos 1 and pos 30: N-glycosylated Asn (cell-made glycans), written N).
T5 construct: MUC16^c114 with Asn24 (Asn1800) changed to Ala, on SKOV3 cells; also called N24 mut c114; SKOV3-N24 mutc114; not shown: hrGFP of the phrGFP II-C vector, fused at the cytoplasmic carboxy-terminus
T5 chain: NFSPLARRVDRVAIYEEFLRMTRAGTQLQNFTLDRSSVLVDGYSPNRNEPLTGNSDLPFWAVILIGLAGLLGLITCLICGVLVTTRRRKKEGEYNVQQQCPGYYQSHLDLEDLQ
Description: FACS, SKOV3-N24 mutc114.

The target of a further test is T6, MUC16^c114-N1 (human, chain 1 pos 24 and pos 30: N-glycosylated Asn (cell-made glycans), written N).
T6 construct: MUC16^c114 with Asn1 (Asn1777) changed to Ala, on SKOV3 cells; also called N1 mut c114; SKOV3 MUC16^c114-N1; not shown: hrGFP of the phrGFP II-C vector, fused at the cytoplasmic carboxy-terminus
T6 chain: T5 chain with N1A, A24N
Description: FACS, SKOV3 transfectant, goat anti-mouse IgG-PE.

For a further test, the target named is T7, MUC16^c114-N3 (human, chain 1 pos 1 and pos 24: N-glycosylated Asn (cell-made glycans), written N).
T7 construct: MUC16^c114 with Asn30 (Asn1806) changed to Ala, on SKOV3 cells; also called N30 mut c114; SKOV3-N30 mutc114; not shown: hrGFP of the phrGFP II-C vector, fused at the cytoplasmic carboxy-terminus
T7 chain: T5 chain with A24N, N30A
Put plainly: FACS, SKOV3 transfectant, goat anti-mouse IgG-PE.

The target of a further test is T8, MUC16^c114-N123 (human, All three N-glycosylation sites (pos 1, 24, 30) are mutated to Ala; none is left in the ectodomain.).
T8 construct: MUC16^c114 with Asn1, Asn24 and Asn30 changed to Ala, on SKOV3 or 3T3 cells; also called N1-N24-N30 mut c114; SKOV3-N1-N24-N30mutc114; not shown: hrGFP of the phrGFP II-C vector, fused at the cytoplasmic carboxy-terminus
T8 chain: T5 chain with N1A, N30A
Description: FACS, SKOV3 transfectant, goat anti-mouse IgG-PE.

In test [18] the target is HER3 (endogenous, MUC16^c114-expressing 3T3 cells) (Mus musculus (Mouse), UniProt Q61526 20-1339). Description: co-precipitation from MUC16^c114-expressing 3T3 cells with MUC16-targeting antibodies, western blot. In general terms: A western blot detects proteins with antibodies after separation by electrophoresis.
Sequence of HER3 (endogenous, MUC16^c114-expressing 3T3 cells) (Q61526 20-1339 limits assumed): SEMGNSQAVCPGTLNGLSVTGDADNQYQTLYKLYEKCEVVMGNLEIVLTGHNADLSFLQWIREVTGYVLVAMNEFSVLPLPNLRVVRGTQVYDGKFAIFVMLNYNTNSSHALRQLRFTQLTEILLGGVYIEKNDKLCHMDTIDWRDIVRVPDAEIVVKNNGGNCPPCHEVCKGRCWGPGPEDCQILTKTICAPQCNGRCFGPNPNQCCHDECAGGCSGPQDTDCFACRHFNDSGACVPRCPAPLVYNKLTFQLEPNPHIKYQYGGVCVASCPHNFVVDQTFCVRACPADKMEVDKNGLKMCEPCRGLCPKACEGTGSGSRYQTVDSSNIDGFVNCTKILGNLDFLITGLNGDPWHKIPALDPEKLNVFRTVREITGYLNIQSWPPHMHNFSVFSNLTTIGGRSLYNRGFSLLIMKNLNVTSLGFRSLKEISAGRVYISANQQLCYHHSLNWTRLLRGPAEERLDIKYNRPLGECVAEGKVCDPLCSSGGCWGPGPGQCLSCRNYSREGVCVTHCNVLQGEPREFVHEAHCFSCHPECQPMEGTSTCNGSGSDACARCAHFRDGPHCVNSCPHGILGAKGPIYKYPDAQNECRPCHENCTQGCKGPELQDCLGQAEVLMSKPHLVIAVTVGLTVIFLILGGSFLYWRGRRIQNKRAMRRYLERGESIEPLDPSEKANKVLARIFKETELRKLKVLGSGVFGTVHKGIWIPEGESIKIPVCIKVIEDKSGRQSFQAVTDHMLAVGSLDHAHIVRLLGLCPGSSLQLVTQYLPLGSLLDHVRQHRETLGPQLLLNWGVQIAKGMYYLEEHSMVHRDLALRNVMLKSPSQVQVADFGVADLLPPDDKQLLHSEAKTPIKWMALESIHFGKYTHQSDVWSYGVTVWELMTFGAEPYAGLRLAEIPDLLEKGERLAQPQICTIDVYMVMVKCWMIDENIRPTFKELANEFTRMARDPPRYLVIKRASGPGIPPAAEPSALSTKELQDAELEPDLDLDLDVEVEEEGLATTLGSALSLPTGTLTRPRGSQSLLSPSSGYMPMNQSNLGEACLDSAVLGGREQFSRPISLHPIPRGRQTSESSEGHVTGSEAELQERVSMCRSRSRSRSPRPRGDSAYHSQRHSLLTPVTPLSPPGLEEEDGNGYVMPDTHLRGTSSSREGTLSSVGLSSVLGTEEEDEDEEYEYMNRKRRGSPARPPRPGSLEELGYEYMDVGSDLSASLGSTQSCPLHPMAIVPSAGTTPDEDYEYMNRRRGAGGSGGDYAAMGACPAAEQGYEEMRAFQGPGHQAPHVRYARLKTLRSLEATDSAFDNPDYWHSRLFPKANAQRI
For test [19], the target named is EGFR (endogenous, MUC16^c114-expressing 3T3 cells) (Mus musculus (Mouse), UniProt Q01279 25-1210). The test is described as above.
Test [20] deals with T9, GlcNAc2-15-mer glycopeptide, unconjugated (human).
T9 construct: Cys plus G25-V38 of MUC16^c114; Used in ELISA without KLH; also called 15-mer(chitobiose)[C-G25-V38]; 15mer-chitobiose peptide
T9 peptide: Ac-CGTQLQN(GlcNAc2)FTLDRSSV-NH2
Description: ELISA 12/24/13 (sups from time of freezing), dilution 400, column 15S.

Test [21] deals with T10, (GlcNAc2)2-18-mer glycopeptide, unconjugated (human).
T10 construct: Used in ELISA without KLH; also called 18-mer(chitobiose)2[C-T22-V38]; 18mer-chitobiose peptide
T10 peptide: Ac-CTRN(GlcNAc2)GTQLQN(GlcNAc2)FTLDRSSV-NH2
Put plainly: ELISA during fusion screen, dilution 400, column 18S.

The target of test [22] is T11, non-glycosylated 15-mer MUC16 peptide (human).
T11 construct: Same peptide as the GlcNAc2-15-mer without the glycan; also called unglycosylated 15-mer
T11 peptide: CGTQLQNFTLDRSSV
Put plainly: ELISA 12/24/13 (sups from time of freezing), dilution 400, column 15.

The target of test [23] is T12, MUC16 18mer (not fully specified).
T12 construct: also called non-glycosylated 18-mer MUC16 peptide
T12 peptide: CTRNGTQLQNFTLDRSSV
Description: ELISA during fusion screen, dilution 400, column 18.

Test [24] addresses T10, (GlcNAc2)2-18-mer glycopeptide, …. Put plainly: ELISA 12/24/13 (sups from time of freezing), dilution 400, column 18S.
Test [25] addresses T13, biotinylated chitobiose-conjugated 18-mer glycopeptide (human, also: biotinylated, site not given here).
T13 construct: Cys plus T22-V38 of MUC16^c114; The range is derived from T22-V38 and the statement that c114 is 1777-1890; also called (GlcNAc2)2-18-mer, biotinylated; 18-mer(chitobiose)2[C-T22-V38]
T13 peptide: Ac-CTRN(GlcNAc2)GTQLQN(GlcNAc2)FTLDRSSV-NH2
Put plainly: BLI (Octet QK), biotinylated glycopeptide on streptavidin sensor, antibody 10 ug/mL, 1:1 model. As for the experimental part:
Binding affinity was determined using ForeBio Octet QK. 5 μg/mL of biotinylated chitobiose-conjugated 18-mer glycopeptide was loaded onto a streptavidin biosensor. After washing off excess antigen, mouse antibodies were tested at 10 μg/mL for association and dissociation steps, respectively. Binding parameters were calculated using 1:1 binding site model, partial fit.

Test [26] addresses T12, MUC16 18mer. Description: ELISA 12/24/13 (sups from time of freezing), dilution 400, column 18.

As for 4H11 (antibody), the ELISA signal stood at 0.02 in test [1]; 0.06 in test [3]; 0.02 in [5]; 0.045 in test [7]; 0.049 in test [8]; 0.076 with MUC16 18mer [10]. The ELISA signal with MUC16 18mer [11] stood at 0.02; in [12], 0.063; in test [14], 0.038; in test [15], 0.02. Moreover, the Mean % PE in the test with MUC16^c114 (human) [2] is 85.7%. Moreover, the results for the % 4H11-PE Positives with MUC16^c114 (human) [4], with MUC16^c114 (human) [6] and with MUC16^c114 (human) [13] were 51.7%, 19.3% and 28.4%, respectively. Moreover, the geometric mean phycoerythrin (PE) fluorescence in test [9] came out at 2380; with MUC16^c114 (human) [16], 1120.

B1: 4H11 (antibody, V domains shown)
VH: EVKLQESGGGFVKPGGSLKVSCAASGFTFSSYAMSWVRLSPEMRLEWVATISSAGGYIFYSDSVQGRFTISRDNAKNTLHLQMGSLRSGDTAMYYCARQGFGNYGDYYAMDYWGQGTTVTVSS
VL: DIELTQSPSSLAVSAGEKVTMSCKSSQSLLNSRTRKNQLAWYQQKPGQSPELLIYWASTRQSGVPDRFTGSGSGTDFTLTISSVQAEDLAVYYCQQSYNLLTFGPGTKLEVK
As to B1, the “% 4H11-PE Positives” value was found to be 27.4% in the test with MUC16^c86, 16.7% with MUC16^c80 and 34.4% with MUC16^c344. Also, the ELISA signal in test [17] was 2.14. In addition, the “geometric mean phycoerythrin (PE) fluorescence” value with MUC16^c114-N2 is 2650. The “Mean % PE” value was 91.5% with MUC16^c114-N1, 15.6% with MUC16^c114-N3 and 32.3% with MUC16^c114-N123.

B2: MUC16^c114 (other)
chain: T5 chain with A24N
modifications: capable of N-glycosylation at Asn1, Asn24 and Asn30 ; chain 1 pos 1, 24, 30: Asn capable of N-glycosylation on the transfected cells, written N
notes: The forward primer adds Met-Val before Asn1; also called MUC16^c114-GFP; SKOV3 MUC16^c114; not shown: hrGFP of the phrGFP II-C vector fused at the cytoplasmic carboxy-terminus, with its short cloning linker
On to B2, for which the binding result in [18] and in test [19] was “no binding” each time.

B3: 16C5.C1 (antibody, V domains shown)
VH: QVTLKESGPGILQPSQTLSLTCSFSGFSLNTLGMGVGWIRQPSGKGLEWLAHIWWDDDKYYYPALKSRLTISRDTSKNQVFLKIANVDTADTATYYCARIGTAQATDALDYWGQGTSVTVSS
VL: ELDMTQTPPSLSASVGETVRIRCLASEDIYSGISWYQQKPGKPPTLLIYGASNLESGVPPRFSGSGSGTDYTLTIGGVQAEDAATYYCLGGYSYSSTLTFGAGTNVEIK
notes: Mouse monoclonal from a hybridoma
Consider B3, for which the ELISA signal was 0.23 in [20]; 0.36 in test [21]; 0.62 in test [22]; 0.24 with MUC16 18mer [23]; 0.68 in test [24]; 0.63 with MUC16 18mer [26]. This molecule also displayed an equilibrium dissociation constant (Kd) in [25] of 25.7 nM. The molecule also came in with a dissociation rate constant (koff) in test [25] of 0.00172 s⁻¹.

What is called Kd is a measure of binding affinity in units of concentration. A high value points to a looser complex. For orientation: koff means the first-order rate constant of dissociation. High values mean fast dissociation, low ones slow dissociation.
